According to patent US20230001007A1, “Glycan-Interacting Compounds and Methods of Use” (Seagen Inc., priority 2017, published 2023):

Tests used:
[1] = test system: Primary patient CRC samples; assay: STn expression in primary patient CRC samples by flow cytometry; assay type: cell-based; conditions: % of viable CD45−/CD34− population
Excerpt: Primary patient CRC samples were probed by flow cytometry with hSIA101 and two commercial antibodies B72.3 and CC49. All 10 samples tested were STn positive. In the table, % STn is expressed as % of viable CD45−/CD34− population. STn expression was often more robustly identified with hSIA101 than the commercial antibodies.

[2] = test system: RKO; assay: STn expression on CRC line by flow cytometry using anti-STn antibodies; assay type: cell-based; conditions: detected using hSIA101
Protocol: (§1) Mouse antibodies were characterized for in vitro and in vivo efficacy in breast, colon and ovarian cancer models. The antibodies were used to identify CRC cell lines that express STn on the surface. Five CRC lines were incubated in vitro and grown to confluency. % STn expression was determined by flow cytometry using anti-STn antibodies. Approximately 30-70% of cultured SW403, COL0205 and LS174T cells naturally expressed STn on the surface (as detected using mSIA103), while HT29 and RKO had very little to no detectable STn (as detected using hSIA101) on their cell surface (see Table 6).

[3] = test system: HT29; assay: as above; assay type: cell-based; conditions: detected using hSIA101
Protocol: as §1

[4] = test system: MDA-MB-231-STn cells; assay: Flow cytometry-based binding analysis; conditions: 0 to 300 nM, read-out: MDA-MB-231-STn cell binding [EC50 (nM)]
Protocol: Humanized IgG1 antibodies, prepared as described above, were subjected to characterization analysis including flow cytometry-based binding analysis with MDA-MB-231-STn cells; binding analysis by BSM ELISA; and glycan array analysis.
In flow cytometry-based binding studies, antibodies were screened over a concentration range of 0 to 300 nM, comparing binding to MDA-MB-231 cells with or without transfection-induced STn expression. Binding was determined using an anti-human APC conjugated secondary antibody and only live cells were considered (based on propidium iodide negative gating). 5,000 events were collected per sample on average. Data were analyzed using FlowJo software (Asland, Oreg.) and resulting APC means and % APC were obtained. […] Human isotype IgG1 antibody was used as an isotype negative control. Epidermal growth factor receptor (LA22, EMD Millipore, Billerica, Mass.) was used as a positive control.

[5] = test system: MDA-MB-231 cells transfected for enhanced expression of STn (STn positive cells); assay: ADC cytotoxicity assay ([…]-GLO); assay type: cell-based; conditions: MMAE-conjugated ADC versions; 72 hours; kill of STn positive cells
Protocol: MMAE-conjugated ADC versions of hSIA101, hSIA102, and hSIA103 were assessed in an ADC cytotoxicity assay using MDA-MB-231 cells (parental or transfected for enhanced expression of STn). Parental cells were grown in Eagle's Minimum Essential Medium (EMEM) supplemented with 10% FBS, lx Pen/Strep and 45 μg/mL gentamycin. STn positive cells were grown in the same media except with the addition of 1 mg/mL G418 for antibiotic selection. Cells were seeded separately (4,000 cells/well for parental cells or 2,000/well for STn positive cells) in 96-well plates using proper media described above. Cells were grown overnight. After 16-20 hours, cells were treated with varying concentrations of test antibodies in triplicate (50 nM to 0.012 nM) for 72 hours. Then, cells were analyzed using an ADC […]-GLO® luminescent cell viability assay kit (Promega, Madison, Wis.) to determine the amount of ATP present, an indicator of metabolically active cells. The assay uses a single reagent that is added directly to the cultured cells in serum-supplemented medium. The reagent lyses the cells and generates a luminescent signal proportional to the amount of ATP present. Luminescent signals were analyzed and used to calculate the half-maximal inhibitory concentration (IC50) values for each antibody used based on the concentration required to kill STn positive cells at half-maximal levels (see Table 9).

[6] = molecular target: bovine submaxillary mucin (BSM); assay: BSM ELISA, periodate-sensitive STn binding; conditions: periodate-sensitive STn binding curve, 0 to 100 nM
Protocol: For BSM ELISA analysis, antibodies were screened over a concentration range of 0 to 100 nM on bovine submaxillary mucin (BSM) coated wells. A subset of wells were treated with mild periodate solution before antibody introduction to remove the side chain on terminal sialic acid residues (destroying the STn antigen). Optical densities of periodate and non-periodate-treated wells were determined and log transformed then fit to a nonlinear regression model to obtain a dose response curve. Optical density values obtained from periodate-treated wells were subtracted from non-periodate treated wells to obtain a periodate-sensitive STn binding curve and corresponding EC50 values.

[7] = test system: cynomolgus monkey tissues; assay: Tissue cross-reactivity study, frozen tissue sections; assay type: binding; design: key: 1+=weak staining; 2+=moderate staining; 3+=strong staining; 4+=intense staining; Neg=negative; freq=frequent (staining in >75%-100% of cells); occ=occasional (staining in >25%-50% of cells); rare refers to staining in 1-5% of cells; conditions: Cyno, 1-3 μg/ml
Protocol: Tissue cross-reactivity studies were conducted to assess the binding profile (both on- and potential off-target binding) to human and relevant species used in nonclinical safety testing. Humanized anti-STn antibodies were examined for binding to a panel of normal human, rat, mouse, and cynomolgus monkey tissues. The study was conducted on […] normal frozen tissue sections at 1-3 μg/ml: heart, brain, kidney, stomach, lung, small intestines, colon, liver, pancreas, spleen and bone marrow. The positive control was a human pancreatic neoplasm that contained STn positive cancer cells and the negative control was normal stromal cells contained within the same specimen. Staining across all normal tissues was restricted to the cytoplasm. Additional analyses were conducted without primary antibody or using isotype control IgG as negative controls.
Antibodies were also found to cross react with similar types of tissue from Cynomolgus monkey (see Table 17) and rat (not shown).

B1: hSIA101 (antibody, V domains shown)
VH: EVQLVQSGAEVKKPGASVKVSCKASGYTFTDHAIHWVRQAPGQGLEWMGYFSPGNDDIKYNEKFRGRVTMTADKSSSTAYMELRSLRSDDTAVYFCKRSLSTPYWGQGTLVTVSS
VL: DIVMTQSPDSLAVSLGERATINCKSSQSLLNRGNHKNYLTWYQQKPGQPPKLLIYWASTRESGVPDRFSGSGSGTDFTLTISSLQAEDVAVYYCQNDYTYPYTFGQGTKVEIK
- % STn+ ([1]; Sample 160093-2, Colon): 22.9%
- % STn+ ([1]; Sample 160101-2, Colon): 10%
- % STn+ ([1]; Sample 160102-2, Colon): 12.9%
- % STn+ ([1]; Sample 160104-2, Colon Met to Liver): 47.8%
- % STn+ ([1]; Sample 160115-2, Colon): 5.4%
- % STn+ ([1]; Sample 160127-2, Colon): 4.2%
- % STn+ ([1]; Sample 160149-1, Colon): 22.7%
- % STn+ ([1]; Sample 160151-1, Colon): 19.6%
- % STn+ ([1]; Sample 169068-1, Colon): 10.9%
- % STn+ ([1]; Sample 1601666, Colon): 29.4%
- % STn expression [2]: Low to non-detectable
- % STn expression [3]: Low to non-detectable
- EC50 [4]: 2 nM
- IC50 [5]: 5.2 nM
- EC50 [6]: 4.2 nM
- tissue staining ([7]; Colon Epithelial Cells): Neg
- tissue staining ([7]; Colon Vessel): 4+ freq (cytoplasm)
- tissue staining ([7]; Heart Vessel): Neg
- tissue staining ([7]; Lung Epithelium): 2-3+ freq (cytoplasm)
- tissue staining ([7]; Pancreas Vessel): 2-3+ freq (cytoplasm)
- tissue staining ([7]; Small Intestine Epithelial Cells): 3-4+ freq (cytoplasm)
- tissue staining ([7]; Spleen Vessel): Neg
- tissue staining ([7]; Stomach Epithelial Cells): 2-3+ occ (cytoplasm)
- tissue staining ([7]; Stomach Vessel): 2+ occ (cytoplasm)
